Data from the domain aggregation screens of Martell et al. (2025).

Experiment: soluble fraction after stress (log2 fold change); higher = more stays soluble; pooled small domains, quantitative proteomics
Conditions: stress: pH 4
How it was run: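 Aggregation propensity is estimated from the fold change in each domain's soluble amount after acid stress. Pooled small-domain libraries were stressed at pH 4, and higher log2 values mean more stayed soluble.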

Sequence | soluble fraction (log2)
HMGTPLYLLLAAEVRDRIATEQLAPHTAVPSERELAELHGVSRMTARQALALLESEGLVYRNPPRGTFVAE | -0.922
HMGTQIKSPMPGTILDVRVNVGDTVKEGDILMILEAMKMENEILAPVSGKVAAIQVSKGTAVNSGDLLAVL | -0.404
HMGTRHPLPYAYARANTVLLEDDGDRLVLWAPENVSLTALGEVLRRFDVDALERESSSTLANRIAVAYAG | -0.896
HMGTTLTKIPGIGENRARLLLRHFGSLRAVREADADALAAVKGMTRPAAEAIVRYFEQQDAEGRRD | 0.336
HMGTTTPPATRKGKVTSSFLNVRSGPSTANAKVAELKQNAVVTIYETSSNGWHRIGVNQWVIGTNIQE | -0.121
HMGTVSSGSSSTDTPFSLGEIVRHKVFGEGVVLSIEGQGDASRIQINFNTAGTKWLVTAYADLEK | -1.28
HMGTVVKRNALVHAWTEFNGGRASTKLLALGPGKVGEWIELENPQSGRKLRGEVQVDGSVRLG | 0.296
HMGTWKKIGTMTATVNDLYVRETPNGYIMGFINKGTVVEVDGKTTGKWTHAKVEGIGVGWIWTGYLDK | 0.161
HMGTYYTEIIAQLKKEIANGTWKLGERLPGELALAKQFNVSRSSIREALKALAYAGIVESKPGRGTFLLHV | -0.207
HMGVAAEDPDEAEKGAHSLKSSAANVGAEVVRGLAGEIESAASSGDVEAVRTILPGLEDAYSQAITDLET | 0.133
HMGVDMGPAKYVGQKALTATEMRPAGKIQIGQTVFDAVSVGPFIGARKAVKVIKYENAQLYVEPE | 0.116
HMGVEVEVPNVKGKLVADAEYELGLAQLTPVRTDSAYNRNLPPGTVLEQLPASGSHVKEGREIYLTINST | 0.155
HMGVGERIKARRKEIGLSAEQVAKELGVSPATVYRYESNDIMNMRIDKLEPIAKALHTTPAYLMGWE | 0.155
HMGVGVKSTEVDYQRTSSGSDIPTDDAAWTKTIPAVKVNTFLWTRTKINYTDGTSAIFYSVGY | 0.419
HMGVGVPVTLLLEKLGEDTLSAQQIMERLGLKSRASFRKVYLVPALEQKLIEMEFPDKPNSSKQRYRR | -0.00401
HMGVISRVITFWQNGFTVDDGPLRAFDDPANMAFMESIGRGEAPAELAPKTRTQRVNINLVQRHEPYSAPK | -0.934
HMGVITVRPPIVVRDFAIALNLKPFQVIGNLMELNKVVSVSSVIEEADARKVAERHGYTLEIRH | -0.133
HMGVMNEYEELRDRYLTGQIWKIGDLVEAKGIEGKIIQRGTNYITFNDSQGKVHKAWLHEIKV | ≥ 0.43
HMGVNNDIIKHRKLEFMIEMLPDTFTRKEANEIGEGLGISLATLTRYLSSDAFERTGHGRYRKKD | 0.139
HMGVPTEQEIGKRILAWRKLRGMTLQQLADKAGVGLTTIHNLETGLWYAKMPTYLYIAEALGVSLDALIYG | 0.0266
HMGVPVTAPMPGKVLKVTVSVGAAVKNGDLVLVLEAMKMENEIFATANGVVKEIRSREGDTVNSGDVMMVI | -1.35
HMGVRPAALGFQKVRIEPQVGTFREASGDVITPRGLIHAEWKRDEENALHLHYTLPDGVAYA | -0.109
HMGVSDDMARGVVRARQFLSDFAAVPLDRMTPAEAVARARQLKSELETDAKHSPWLLDVLSNA | -0.37

Sequence | soluble fraction (log2)
HMGVSEIGSPAWMESKLVTLASYEGSLDGLRTLWGGVAQHRARIPVESWDRLFAAKEEGKARLVKLGRT | 0.0299
HMGVSLREVPVAEHGDWIGRPIKELGIPAEVLIVLVRRADGTTVVPKGGTVLQQGDMLVVNEWEE | -1.25
HMGVTDSSYNVLRRQILEMLSVQQRTPADLARLIEADKEEIAAVIRFLLDKGEIQMEDGMLQTK | -0.151
HMGVVEEVAADFEGRAVVGKVDVDEQTELARRFGIMSIPTLVVMKGGKVVEQAVGARGKADIAAMLERH | -0.673
HMGYINLNVKVSPEWRDFWRSAYASVVAGYHQNKEHWNTIILDGSIPDKDIKRMIAESYDLVSD | -0.662
HMGYLNDRQRLIKDFITENQPLKVSDLVKQFPNIGLSTLKKDLQYLRGEQVLTMIGKGKGSVYVLNKK | ≥ 0.43
HMGYNDQEVKSNLITLLSTSKTGLSGVEISAQLGINRVTMTKFLNVFAAEGIIKQKNIGNLNLWLVEEGTE | -0.05
HMGYTTSFVVQLKNAVSISFDEIDQNLRKLPGVEDVVIVEEAAMAYLKVDRQHFREEQLAHFEFVRQ | -1.6
HMGYVQLTAREKEVLQGLVDGASYKMIAAKLDIRFGTVHTHVKNIYEKLHVNSASEAVVKAIRQRL | -0.743
HMHADIAATVVATMRQLGVLGLPRNYEIFYEALSGTNRELSLAVVSLSNRPTQDDLDRIGRRFFA | -0.426
HMHAEEIAREAKEALERGEEFHFAGITVRSEEALEFLEEWLRKFF | -1.23
HMHALSVKFSDEAAKTLPYDILSALRDVLALDPRPGYSRDENKIYRFEYADYNISFSVKDKTLTVLSAEK | -0.148
HMHAPRIEVVQIDPEKIGALIGPGGKNIRRITEVTGANLDIDEDNSGKIRVYASDSEAMNRALQEIDLVT | -0.18
HMHDHKTRLQELAAQRFGSAPSYLLTADGPAHDRRFHASVEVGGRSFGPGTGKSKKRAEQVAAHIAWDALS | 0.415
HMHDIPDITDLRPLRHTLGLTLAHAAQQLNTTTATISRLERGQHRNDHLATTYRTWLHTHPT | 0.08
HMHDLSQQIVRYLIQQGGSSSLTDKSDPQEIYRTFKVSKKKYKQALGNLYKSKTIVITSGKIELVD | 0.306
HMHDYNTIVGVIEMRDKNIPLTSIRQRYGIGYSGIDLILTRYKDSGLTLKEFLALDPSQAEELIYPPK | -0.134
HMHEHWDGSGFPKHLRGANIPLGARVIAVADTYDSITSSRAYRAGSTHEAAEREMRRVSGTQLDPE | 0.0226
HMHEIVDTVLQVKQSVEADPLIAPALKNKEIVFQLNAKGVFQFKNAVIQVASALGISKNTVYMHLRNNK | -0.14
HMHETMGQIIKRLRKERGLTQESLAERLGVTFQAVSKWETDAGMPDVSQIVPLANAFGVRTDVLFGLEGRD | 0.187
HMHEYSRIYQQQWWDNATGADAYHVIHSARSRAAQDPEAARALEYLEEQFRIRYGVRTEDFLGYLHD | -1.31
HMHFENEETFVLPLVREGFSEQQQLEMVDRLLFDANTDNPRWIIDWMASELPSTQRELLLDLEKRLAEVRS | -0.358
HMHFEWNELRKAINDFLAEQNMNEDKQLGPYFIQRDIVVPETGTEIDSKKFSEVFKHKVIMYLFDDAAKQ | -0.441

Sequence | soluble fraction (log2)
HMHGESISVPDLRGQKMERMPAFLADKHLQFKVIDSLFDLEKNPGTVLEQDPAPNSKVKEGRTIYLTVNAQ | -0.118
HMHGQGTYTSPDGTKYVGDWQDEKMHGQGTYTYPDGMKFVGEFKDNKPWNGTGYDKYGNVKATFSNGVGKS | 0.22
HMHGSSSTVPPVKGLSFEQARLTLAENDLTVEISDSIYDRNARPGTVVESWPRAGSVVKQGRQVYVTVTAF | -0.685
HMHHDDHNQQEEIKEKLLAMVADGERHHVTEVRQLDEDWDMVTKVMKELMDEEQLLMDGSYLILSA | -0.551
HMHHSGLRQSQFDEISRQIRSLLEMESLSLQELKTRMEDVPEEQLTKVVSYLLSEEIIRQENGRLQ | -1.35
HMHKAVVGPPNARKLAVTYGFKRWPALVFFRDGKYLGAVDGLRLWADLVREADEIMHSEPHYP | 0.22
HMHKFMEQNQDRRLSRMKELIGILSEAAKTYYQESREIMSNFQYDRMYDELLELEKETGVVMAGSPTQKV | -0.98
HMHKKQEVQDSIDAAEEFMRASGVPAELITSKRAYAVKAIYADAVDKGTPDEIVKKDGMIVALISQMRS | -0.159
HMHKLTIEEALNYKTPANAGGPYSGKPFRDIYDQRGKAAVISFAKYYLSKATPEDPMVEVYRTLLDGAMEL | 0.102
HMHKREKSFFETIYDDIPGIGKKRRVQLLSAYPTLDSLKSVTLEELKQIVPEESAKLILEKRDSR | 0.407
HMHPARITATVRVGEGDLVDIEREAELGGPIHSKGVMILSSFLGARYARTVPLSLSASLVFEQSY | 0.0113
HMHPDALTEREREVLSLLADGLSNREIAARLVLALGTVKWYISVIYSKLGVTRRTQAIARARELHLV | -0.41
HMHPEETVNLILDAAFRLFLEKGYEHTSIQDIIGQLGGLSKGAIYHHFNSKEDILIAVTDRMTA | -1.67
HMHPEQTLEKIVDISAELFAKKGYEQTSIQDILDATGLSKGGLYHHFKSKEEILEAVMQKRVQY | -0.647
HMHPFELNTVTEGQLKRLPFLSDLQIRELLEYRSRYGKMLTLYELKNVEAFDLETISLLVPFIYISEI | -1.44
HMHPKTPDELLALMSEEQRGQIEQLAKLVLMAVSYSGASYYDAVTTMYPRMSEERRRIITHVLNTASP | -0.825
HMHPLFRVVLAGEPNGVGLDDWLTRHEAELINGPSAIGVLTVKIAMGRRSFETVLDEIRADGETIFVEPV | -2.02
HMHPTDMKLTARLEEGAQFVRTQQLSKAIEIFTEVIKLDQNWAEAWNKRATVFYMMGKFKQSQEDIDKVLA | -0.12
HMHPTEKNLTSLLADGSFYMNQNKLETAYDTFTKTIELDPSWAEAWNKRATVLYLMGKYELSQADIDQV | -0.176
HMHPVTGRIGTVTAANGLNLRADSSEYANVVATLGYGVDVTVTGERINGFYPVRVGTLSGYVSADYVSFNS | -0.299
HMHQVHKIDGVKYYLHLVEKGNTLYGISKQYNVSVERIEKANTEALSDGLKENQTLLIPVTSDNKKT | 0.0091
HMHREITGSLAERNGRYTAILNLYDEDGKRRQKSIALGIPVKGNKRKAQAQLEELKRAYSLGLPQ | 0.051
HMHRGTPASIIAAAKQYLTGGQTVELYEREGGPWTFRLRTYLSETPYPEKVRASVEALKPAGVVFLYELQS | -0.112
